The target in assay [1] is T1, recombinant DLL3 protein (purchased from ACRO, DL3-H5255) (human, UniProt Q9NYJ7 27-479).
T1 construct: Bought; also called human DLL3 protein; hDLL3
T1 sequence (looked up): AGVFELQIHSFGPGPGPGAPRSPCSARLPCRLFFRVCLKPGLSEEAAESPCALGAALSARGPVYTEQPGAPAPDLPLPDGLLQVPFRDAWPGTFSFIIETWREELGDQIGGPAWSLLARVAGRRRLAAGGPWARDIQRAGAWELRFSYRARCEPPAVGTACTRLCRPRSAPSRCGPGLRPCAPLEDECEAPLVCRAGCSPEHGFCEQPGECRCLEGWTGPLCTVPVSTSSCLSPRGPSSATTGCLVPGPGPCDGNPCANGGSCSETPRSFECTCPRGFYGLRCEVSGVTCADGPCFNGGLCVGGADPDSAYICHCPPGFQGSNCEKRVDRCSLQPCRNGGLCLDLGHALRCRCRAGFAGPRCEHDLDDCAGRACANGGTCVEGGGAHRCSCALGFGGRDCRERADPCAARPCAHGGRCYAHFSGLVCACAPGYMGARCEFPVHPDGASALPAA
Description: ELISA, plate-coated human DLL3 protein 1 µg/ml. (ELISA stands for enzyme-linked immunosorbent assay.)

In assay [2] the target is T2, human DLL1 (purchased from Acro, DL1-H52H8) (human, UniProt O00548 18-540).
T2 construct: Bought; also called hDLL1
T2 sequence (looked up): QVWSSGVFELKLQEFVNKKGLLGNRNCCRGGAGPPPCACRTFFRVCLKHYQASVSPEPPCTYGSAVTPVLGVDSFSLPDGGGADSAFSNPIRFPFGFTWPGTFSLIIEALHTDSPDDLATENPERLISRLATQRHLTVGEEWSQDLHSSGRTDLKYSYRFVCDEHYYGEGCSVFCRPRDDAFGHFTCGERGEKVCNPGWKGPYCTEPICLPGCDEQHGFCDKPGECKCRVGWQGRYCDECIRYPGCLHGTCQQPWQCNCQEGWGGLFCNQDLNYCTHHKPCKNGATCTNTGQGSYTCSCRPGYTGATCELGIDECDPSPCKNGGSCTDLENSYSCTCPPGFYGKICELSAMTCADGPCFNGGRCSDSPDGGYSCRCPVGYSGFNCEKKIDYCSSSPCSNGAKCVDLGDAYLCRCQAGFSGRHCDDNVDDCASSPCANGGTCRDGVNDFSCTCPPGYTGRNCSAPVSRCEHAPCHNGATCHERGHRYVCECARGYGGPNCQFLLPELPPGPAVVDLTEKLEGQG
Description: ELISA on plate-coated human DLL1 protein (1 µg/ml), HRP goat anti-human secondary, OD 450 nm [left panel]. The protocol:
The chimeric antibodies obtained in Example 6 were evaluated for their binding abilities to human DLL1 (purchased from Acro, DL1-H52H8) and DLL4 (purchased from Acro, DL4-H5227) proteins using the ELISA method. The ELISA detection method involved diluting DLL1 and DLL4 proteins with PBS to a final concentration of 1 μg/ml and coating them onto 384-well ELISA plates (purchased from Corning, 3700) at 4° C. overnight. The next day, the supernatant in the plate wells was discarded, and the wells were blocked with 80 μl of 3% milk (dissolved in PBS) for 2 hours, followed by washing three times with 80 μl of PBST (0.1% Tween20). […] After washing with 80 μl of PBST (0.1% Tween20) for five times, 25 μl of HRP-labeled goat anti-human secondary antibody (Jackson, 1:10000) was added to each well and incubated at room temperature for 1 hour, discard the supernatant, and the wells were then washed seven times with 80 μl of PBST (0.1% Tween20). After adding 25 μl of TMB chromogen solution for 10 minutes, the reaction was terminated with 2M HCl, and the absorbance value at 450 nm was measured with a Microplate reader (purchased from Biotek, Elx808). […] To assess the cross-reactivity of the antibodies with mouse and monkey DLL3, mouse DLL3-expressing plasmid pCMV3-mDLL3 (purchased from Beijing Yiqiao, MG58052-UT) and monkey DLL3-expressing plasmid pCMV3-rheDLL3 (purchased from Beijing Yiqiao, CG90919-UT) were used to construct overexpressing cell lines. The construction of overexpressing cells was as described in Examples 2-3. The binding abilities of the chimeric antibodies to these cells were determined by flow cytometry to assess the cross-reactivity of the antibodies with different species.

Data on ten molecules can be found in US20250114467A1 (SHANGHAI FUDAN ZHANGJIANG BIO PHARMACEUTICAL, published 2025).

By EC50 is commonly meant the concentration that produces a half-maximal response.

B1: ch19C7 (antibody, human IgG1, kappa, V domains shown)
VH: EVQLQQSGPELVRPGASVRMSCKASGYTFTYYVMHWVKQKPGLGLEWIGYINPYNDGTEYNEKFKGKATLTSDKSSSTAFMELSSLTSEDSAVYYCARWLLREYAMDYWGQGTSVTVSS
VL: DIQMTQSPASLSASVGETVTITCRASDNIHNYLAWYQQKQGKSPQLLVYNAKTLADGVPSRFSGSGSGTQYSLKINSLQPEDFGSYYCQHFWSTPWTFGGGTKLEIKR
notes: Chimeric: murine variable regions on human IgG1 heavy and kappa light constant regions; also called chimeric antibody 19C7
As to B1, in assay [1], the half-maximal effective concentration (EC50) amounted to 8.66 ng/mL. For the same molecule, the binding result in assay [2] is on record as “no binding (tested: 20 µg/ml)”.

B2: ch26D9 (antibody, human IgG1, kappa, V domains shown)
VH: EVQLQQSGPELVKPGASVKMSCKASGYTFTTYVMHWVKQKPGQGLEWIGYINPYNDDTNYNEKFKGKATLTSDKSSSTAYMELSSLTSEDSAVYYCARWGLTGTGDYYAMDYWGQGTSVTVSS
VL: DIQMTQSPASLSASVGETVTITCRASGNVHNYLAWYQQKQGRSPQVLVYNAKTLADGVPSRFSGSGSGTQYSLKINSLLPEDFGSYYCQHFWTTPWTFGGGTTLEIKR
notes: Chimeric: murine variable regions on human IgG1 heavy and kappa light constant regions; also called chimeric antibody 26D9
Consider B2, for which, in assay [1], the EC50 is 11.8 ng/mL. Further, the binding result in assay [2] is given as “no binding (tested: 20 µg/ml)”.

B3: ch23G2 (antibody, human IgG1, kappa, V domains shown)
VH: QVQLQQSGPELVRPGVSVKISCKGSGYTFTDYAIHWVKQSRAKSPEWIGIVSTDSGKTSFNQKFKGKATMTVDKSSTTAYMELVRLTSEDSAIYYCARNPYYDYDGYAMDYWGQGTSVTVSS
VL: DIQMTQSSSYLSVSLGGRVTIICKASDHINNWLAWYQQKPGNAPRLIISGATSLETGVPSRFSGSGSGKDYTLSITSLQTEDVATYYCQQYWSIPYTFGGGTKLEIKR
notes: Chimeric: murine variable regions on human IgG1 heavy and kappa light constant regions; also called chimeric antibody 23G2
For B3, in assay [1], the concentration giving a half-maximal response (EC50) stood at 9.41 ng/mL. The binding result in assay [2] is reported as “no binding (tested: 20 µg/ml)”.

B4: ch33F11 (antibody, human IgG1, kappa, V domains shown)
VH: EVQLQQSGPELVKPGASVKISCKTSGYTFTENTMHWVKQSHGESLEWIGGINPRNGVTSYNQKFKGKATLTVDKSSSTAYMELRSLTSEDSAVYYCTNTYYRDYFDYWGQGTTLTVSS
VL: NIVMTQSPKSMSMSVGERVTLSCKASENVGTYVSWYQQKPDQSPKLLIYGASNRYTGVPDRFTGSGSPTDFTLTISRMQAEDLAHYYCGQTYTYPLTFGAGTKLELKR
notes: Chimeric: murine variable regions on human IgG1 heavy and kappa light constant regions; also called chimeric antibody 33F11
In the case of B4, the EC50 in assay [1] was 9.55 ng/mL. For the same molecule, in assay [2], the binding result is “no binding (tested: 20 µg/ml)”.

B5: ch1A5 (antibody, human IgG1, kappa, V domains shown)
VH: EVQLQQSGPELVKPGASVKISCKTSGYTFTESAMHWVKQSHGKSLEWIGGINPNNGGISYSQKFKGKATLTVDKSSSTAYMELRSLTSEDSAVYYCGSSYYRDYFDYWGQGTTLTVSS
VL: NIVMTQSPESMSMSVGERVTLSCKASENVGTYVSWYQQKPDQSPKLLIYGASNRYTGVPDRFTGSGSATHFTLTISSVQAEDLADYHCGQSYSYPLTFGAGTKLELKR
notes: Chimeric: murine variable regions on human IgG1 heavy and kappa light constant regions, expressed in 293F cells; also called chimeric antibody 1A5
As to B5, the EC50 in assay [1] was 9.21 ng/mL. Besides, the binding result in assay [2] is listed as “no binding (tested: 20 µg/ml)”.

B6: ch32E8 (antibody, human IgG1, kappa, V domains shown)
VH: QVTLKESGPGILQPSQTLSLTCSFSGFSLSTSGMGVGWIRQPSGKGLEWLALIWWDDVKRYHPALKSRLTISKDTSSSQVFLKIASVDTADTATYYCARIAEVTGQVGLHYAMDYWGQGTSVTVSS
VL: QTVLTQSPAIMSASLGERVTMTCTASSSVNSSSLHWYQQKPGSSPKLWIYTTSNLASGVPARFSGSGSGTSYSLTISSMEAEDAATYYCHQFHRSPFTFGSGTKLEIKR
notes: Chimeric: murine variable regions on human IgG1 heavy and kappa light constant regions; also called chimeric antibody 32E8
Consider B6, for which the EC50 in assay [1] amounted to 8.83 ng/mL. Moreover, the binding result in assay [2] is on record as “no binding (tested: 20 µg/ml)”.

B7: ch10B1 (antibody, human IgG1, kappa, V domains shown)
VH: DVKLVESGGGLVKPGGSLKLSCAASGFTFSNYTISWVRQTPEKRLEWVATFSSGGSYTYYSDSVKGRFTISRDNAKNTLYLQMSSLKSEDTAMYYCSRDRRSDGYYHLYAMDYWGQGTSVTVSS
VL: DIQMTQTTSSLSASLGDRVTISCRASQDISHYLNWYQQKPDGTVKLLIYYTSRLHSGVPSRFSGSGSGTAYSLTISNLEQEDIATYFCQQGYTLPLTFGAGTKLELKR
notes: Chimeric: murine variable regions on human IgG1 heavy and kappa light constant regions; also called chimeric antibody 10B1
For B7, the EC50 in assay [1] was determined as 16.8 ng/mL. For the same molecule, the binding result in assay [2] is on record as “no binding (tested: 20 µg/ml)”.

B8: ch6A2 (antibody, human IgG1, kappa, V domains shown)
VH: EVQLQQSGPELVKPGASVKISCKASGYTFTDYNMNWVKQSQGKSLEWIGYIYPYNGGTGYNQKFKTKATLTVDNSSSTAYMEFRSLTSEDSAVYYCARSDPYYTMDYWGQGTSVTVSS
VL: IIVMTQTPKFLLVSAGDRVTISCKASQSVNNDVAWYQQKPGQSPKLLIYFTSNRFTGVPDRFTGSGYGTDFTFTISSVQAEDLAVYFCQQDHNSPYTFGGGTKLEIKR
notes: Chimeric: murine variable regions on human IgG1 heavy and kappa light constant regions; also called chimeric antibody 6A2
With B8, the EC50 in assay [1] stood at 13.1 ng/mL. For the same molecule, in assay [2], the binding result was “no binding (tested: 20 µg/ml)”.

B9: ch15G2 (antibody, human IgG1, kappa, V domains shown)
VH: EVQLQQSGPELEKPGASVRISCKASGYSFTDYNMHWVKQSNGKSLEWIGNIDPYYGGTNYNQKFEGKATLTVDKSSSTAYMQLKSLTSEDSAVYYCARGGNNYGDYWGQGTTLTVSS
VL: DIQMTQSPASLAASVGETVTITCRASENIYYSLAWYQQKQGKSPQLLIFNANSLEDGVPSRFSGSGSGTQYSMKINSMQPEDTATYFCKQAYDVPWTFGGGTKLEIKR
notes: Chimeric: murine variable regions on human IgG1 heavy and kappa light constant regions; also called chimeric antibody 15G2
B9: the concentration giving a half-maximal response (EC50) in assay [1] was 8.53 ng/mL. In addition, the binding result in assay [2] is listed as “no binding (tested: 20 µg/ml)”.

B10: ch13C2 (antibody, human IgG1, kappa, V domains shown)
VH: EVKLVESGGGLVKPGGSLKLSCAASGFAFSSYDMSWVRQTPEKRLEWVATISSGGSYTYYPDSVKGRFTISRDNGRNTLYLQMSSLRSEDTALYYCASPLLGLRFAYWGQGTLVTVSA
VL: QAVVTQESALTTSPGETVTLTCRSSTGAVTTINYANWVQEKPDHLFTGLIGGTNNRAPGVPARFSGSLIGDKAALTITGAQTEDEAIYFCALYYSNHWVFGGGTKLTVLR
notes: Chimeric: murine variable regions on human IgG1 heavy and kappa light constant regions; also called chimeric antibody 13C2
For B10, in assay [1], the concentration giving a half-maximal response (EC50) worked out at 395 ng/mL. For the same molecule, in assay [2], the binding result is given as “no binding (tested: 20 µg/ml)”.
